We go through six substances from paper PMC6917767.

Experiment [1] addresses PARP1 (UniProt P09874). The experiment is described as follows: BLI, nucleosome immobilised, PARP1 titrated. The following applies: reference: H2A.X nucleosome; sites S139.
In experiment [2] the target is 145 bp nucleosome core particle (NCP) with H2A (human). The experiment is described as follows: SPR; Biacore 3000, room temperature, 10 ul/min; nucleosome/NCP with biotinylated DNA (600-700 RU) immobilised on CM5 chips with neutravidin; 20 mM Tris pH 7.5, 150 mM NaCl; PARP1 1.15-18.5 nM or NPARP1 2.32-37 nM injected; kinetic titration, 1:1 fit.
The target of experiment [3] is NUC155, nucleosome with a single double-helical turn linker DNA at one terminus (H2A) (human). The experiment is described as above.
In experiment [4] the target is NUC167, nucleosome with a single double-helical turn linker DNA at both termini (H2A) (human). The description is as above.
For experiment [5], the target named is 145 bp nucleosome core particle assembled with H2A (NCP) (human) (UniProt P06899). The experiment can be described thus: SPR; Biacore 3000, room temperature, 10 ul/min; nucleosome/NCP with biotinylated DNA (600-700 RU) immobilised on CM5 chips with neutravidin; PARP1 (1.15-18.5 nM) or NPARP1 (2.32-37 nM) injected consecutively (kinetic titration, 1:1 fit); 20 mM Tris pH 7.5, 150 mM NaCl.

The target in experiment [6] is nucleosome with a single double-helical turn linker DNA at both termini, assembled with H2A (NUC167) (human) (UniProt P06899). Described as above.
Experiment [7] deals with nucleosome with a single double-helical turn linker DNA at one terminus, assembled with H2A (NUC155) (human) (UniProt P06899). The experiment is described as above.
For experiment [8], the target named is NUC167 with H2A.X in place of H2A (human) (UniProt P16104). The experiment is described as follows: BLI; Octet RED96e, 25 C; biotinylated nucleosome captured on streptavidin biosensors; PARP1 0.195-3.125 nM in PBST pH 7.4; association 120 s, dissociation 15 min; 1:1 model.
Experiment [9] addresses NUC167 with H2A.X-S139E (mutant mimic of γH2A.X) in place of H2A (human). The experiment is described as above.
Experiment [10] addresses NUC167 with γH2A.X [H2A.X (pS139)] in place of H2A (human) (UniProt P16104). The experiment is described as above.
Experiment [11] concerns the target NUC167, nucleosome with a single double-helical turn linker DNA at both termini (H2A) (human). Described as above.
Experiment [12] deals with NUC167 nucleosome assembled with H2A.X in place of H2A (human) (UniProt P06899). The experiment is described as follows: BLI; Octet RED96e, 25 °C; biotinylated nucleosome captured on streptavidin biosensors; PARP1 0.195-3.125 nM in PBST pH 7.4 (150 mM NaCl, 0.05% Tween-20); association 120 s, dissociation 15 min; 1:1 model.
Experiment [13] has as its target NUC167 nucleosome assembled with H2A.X-S139E (mutant mimic of γH2A.X) in place of H2A (human) (UniProt P06899). The description is as above.
Experiment [14] deals with NUC167 nucleosome assembled with γH2A.X [H2A.X (pS139)] in place of H2A (human) (UniProt P06899). Described as above.
Experiment [15] deals with nucleosome with a single double-helical turn linker DNA at both termini, assembled with H2A (NUC167) (human) (UniProt P06899). Described as above.

For the substance “H2A.X (from UniProt P16104) H2A.X-S139E nucleosome”, the KD result in [1] is listed as “stronger; reference 73.2 ± 0.3”.

For the substance “H2A.X (from UniProt P16104) γH2A.X (pS139) nucleosome”, in experiment [1], the KD result is “stronger; reference 73.2 ± 0.3”.

In experiment [2], “NPARP1 (N-terminal half of PARP1, amino acids 1-486) (from UniProt P09874 1-486) (domain or fragment)” registered a Kd of 187 nM, a koff of 0.00424 s⁻¹ and a kon of 22600 M⁻¹ s⁻¹. In addition, in experiment [3], the Kd turned out to be 17.3 nM, the koff amounted to 0.00107 s⁻¹ and the on-rate (kon) amounted to 61900 M⁻¹ s⁻¹. In experiment [4], this substance had a Kd of 8.13 nM, a dissociation rate constant (koff) of 0.0244 s⁻¹ and an association rate constant (kon) of 3e+06 M⁻¹ s⁻¹.

“NPARP1 (N-terminal half of PARP1, amino acids 1-486, lacking the WGR and catalytic domains) (from UniProt P09874 1-486) (domain or fragment)”: the Kd in experiment [5] is 187 nM; in experiment [6], 8.13 nM; in experiment [7] it was 17.3 nM. In addition, the off-rate (koff) in [5] worked out at 0.00424 s⁻¹; in [6], 0.0244 s⁻¹; in [7], 0.00107 s⁻¹. Further, the kon in [5] came to 22600 M⁻¹ s⁻¹; in [6], 3e+06 M⁻¹ s⁻¹; in experiment [7], 61900 M⁻¹ s⁻¹.

“PARP1 (poly(ADP-ribose) polymerase 1) (from UniProt P09874 1-1014) (enzyme)”: the dissociation rate constant (koff) in experiment [8] came out at 0.000274 s⁻¹; in [9], 0.000328 s⁻¹; in experiment [10], 0.000116 s⁻¹; in experiment [11], 0.000158 s⁻¹; in experiment [2], 0.000743 s⁻¹; in experiment [3], 0.00107 s⁻¹. The koff in experiment [4] amounted to 0.000562 s⁻¹. Moreover, the kon in [8] is 3.75e+06 M⁻¹ s⁻¹; in experiment [9], 7.5e+06 M⁻¹ s⁻¹; in experiment [10], 2.43e+06 M⁻¹ s⁻¹; in experiment [11], 825000 M⁻¹ s⁻¹; in experiment [2], 1.06e+06 M⁻¹ s⁻¹; in experiment [3], 1.93e+06 M⁻¹ s⁻¹. Besides, the on-rate constant (kon) in experiment [4] amounted to 2.28e+06 M⁻¹ s⁻¹. For the same substance, the Kd in experiment [2] is 0.701 nM; in experiment [3] it was 0.554 nM.

With “poly(ADP-ribose) polymerase 1 (PARP1), full-length (from UniProt P09874 1-1014) (enzyme)”, the koff in experiment [12] was found to be 0.000274 s⁻¹; in experiment [13] it was 0.000328 s⁻¹; in experiment [14] it was 0.000116 s⁻¹; in [15] it was 0.000158 s⁻¹; in [5], 0.000743 s⁻¹; in experiment [6], 0.000562 s⁻¹. This substance displayed a koff in experiment [7] of 0.00107 s⁻¹. Besides, the on-rate constant (kon) in experiment [12] is 3.75e+06 M⁻¹ s⁻¹; in experiment [13] it was 7.5e+06 M⁻¹ s⁻¹; in experiment [14] it was 2.43e+06 M⁻¹ s⁻¹; in experiment [15], 825000 M⁻¹ s⁻¹; in [5], 1.06e+06 M⁻¹ s⁻¹; in experiment [6], 2.28e+06 M⁻¹ s⁻¹. For the same substance, the association rate constant (kon) in experiment [7] was 1.93e+06 M⁻¹ s⁻¹. The Kd amounted to 0.701 nM in experiment [5] and 0.554 nM in [7].
